We go through 18 molecules from patent US20220177583A1 (University of California, published 2022).

Experiment [1] addresses T1, human CLDN6, endogenously expressed on cancer cell lines (human, UniProt P56747 1-220).
T1 construct: also called Endogenous CLDN6+; CLDN6 on ARK2, OVCA429, UMUC4 cells
T1 sequence: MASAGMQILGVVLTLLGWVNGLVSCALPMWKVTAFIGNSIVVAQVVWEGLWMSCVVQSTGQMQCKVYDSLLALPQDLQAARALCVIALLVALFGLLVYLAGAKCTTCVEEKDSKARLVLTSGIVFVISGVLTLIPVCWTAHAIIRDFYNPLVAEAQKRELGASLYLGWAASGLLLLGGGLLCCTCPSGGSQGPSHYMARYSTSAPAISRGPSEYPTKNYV
Briefly: FACS dose curve, labelled mAb, ARK2 cells.

The target in experiment [2] is T1, human CLDN6, endogenously expressed on …. The experiment is described as follows: FACS dose curve, labelled mAb, OVCA429 cells.
Experiment [3] shares this target. The experiment is described as follows: flow cytometry on UMUC4 cells (Positive Cell Line), anti-human IgG Fc secondary antibody. In general terms: Flow cytometry measures light scatter and fluorescence of single cells or particles in a stream.
For experiment [4] the target is unchanged. The experiment is described as follows: FACS, ARK2 cells, 0.3 ug Ab.
The target is the same in experiment [5]. Briefly: FACS, ARK2 cells, 1.5 ug Ab.
Experiment [6] deals with T2, mouse CLDN6 fused to GFP, expressed on engineered HEK293T cells (mouse, UniProt Q9Z262 1-219).
T2 construct: whole, on cells; also called HEK293T-CLDN6-mGFP Artificial CLDN6+ (mouse); murine CLDN6; not shown: GFP tag
T2 sequence (looked up): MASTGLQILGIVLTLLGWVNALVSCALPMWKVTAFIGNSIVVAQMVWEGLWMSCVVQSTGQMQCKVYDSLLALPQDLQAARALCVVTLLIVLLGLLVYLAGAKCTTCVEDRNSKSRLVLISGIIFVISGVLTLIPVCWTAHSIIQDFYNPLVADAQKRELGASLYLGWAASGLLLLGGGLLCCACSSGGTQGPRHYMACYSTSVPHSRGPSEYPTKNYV
The experiment is described as follows: FACS, 293T clone with mouse CLDN6.

Experiment [7] has as its target T3, CLDN9-GFP expressed on engineered HEK293T cells (human, UniProt O95484 1-217).
T3 construct: whole, on cells; also called HEK293T CLDN9-mGFP; Artificial CLDN9+; not shown: GFP tag
T3 sequence (looked up): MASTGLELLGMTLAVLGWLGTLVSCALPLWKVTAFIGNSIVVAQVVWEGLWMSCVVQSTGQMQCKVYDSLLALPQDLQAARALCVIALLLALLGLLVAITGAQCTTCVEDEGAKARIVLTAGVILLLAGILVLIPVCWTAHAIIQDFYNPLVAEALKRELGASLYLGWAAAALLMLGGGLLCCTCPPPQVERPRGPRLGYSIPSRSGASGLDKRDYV
The experiment is described as follows: FACS dose curve, labelled mAb, HEK293T CLDN9-mGFP cells.

In experiment [8] the target is T2, mouse CLDN6 fused to GFP, expressed on …. Briefly: FACS dose curve, labelled mAb, HEK293T-CLDN6-mGFP (mouse) cells.

Changes are numbered by the printed parent chain.

The EC50 is the concentration at which the effect is half-maximal.

B1: AB9 (antibody, V domains shown)
VH: EVQLQQSGPELVKPGASVKMSCKASGYRFTDYNMHWVKQSHGKSLEWIGYINPNNGGTNYNQNFKGKATLTVNKSSSTAYMELRSLTSEDSAAYYCARDYLYFFDCWGQGTTLTVSS
VL: DIQMTQSPASQSASLGESVTITCLASQTIGTWLAWYQQKPGKSPQLLIYAAASLADGVPSRFSGSGSGTRFSFKISSLQAEDFVSYYCQQLYSIPRTFGGGTKLEIK
notes: Full-length IgG (ExpiCHO)
In the case of B1, the EC50 in experiment [1] came out at 1140 nM; in experiment [2], 1160 nM.

B2: AB13 (antibody, V domains shown)
VH: QVQLQQSGAELVRPGTSVKVSCKASGYAFSNYLIEWVKQRPGQGLEWIGVINPGSGGTNYNEKFKGKATMTADKSSSTAYMHLSNLTSEDSVVYFCARSYFGRSYPYTMDYWGQGTSVTVSS
VL: EIVLTQSPTTMAASPGEKITITCSASSSISSNYLHWYQQKPGFSPKLLIYRTSNLASGVPARFSGSGSGTSYSLTIGTMEAEDVATYYCQQGSSIPLTFGAGTKLELK
notes: Full-length IgG (ExpiCHO)
On to B2, for which the values for the EC50 in experiment [1] and in experiment [2] were 1150 nM and 2290 nM, respectively.

B3: AB3-7 conjugated to MC-VC-PAB-MMAE (conventional) (antibody, V domains shown)
VH: EVQLLESGGGLVQPGGSMRLSCAASGFTFSNYWMNWVRQAPGKGLEWVAQIRLKSDNYATHYADSVKGRFTISRDDSKNTVYLQMNSLRAEDTGVYYCNDGPPSGSWGQGTLLTVSS
VL: DIQMTQSPSSLSASVGDRVTITCRISENIYSYLAWYQQKPGKAPKLLVYNAKILVEGVPSRFSGSGSGTDFTLTISSLQPEDFGTYYCQHHYTVPWTFGQGTKLEIK
modifications: MC-VC-PAB-MMAE conjugated to the antibody, heterogeneous (conventional); sites not stated
notes: Antibody-drug conjugate of humanized AB3-7 (WuXi Biologics); also called CLDN6 ADC; ADC-23 (conventional)
B3: in experiment [3], the “flow cytometry signal at 0.1µg Ab/Sample” value came out at 8910 and the “flow cytometry signal at 1µg Ab/Sample” value turned out to be 28800.

B4: AB3-7 (antibody, V domains shown)
VH: B3 VH
VL: B3 VL
notes: Humanized; also called humanized AB3-7; AB23
For the molecule B4, the FACS signal was 36000 in experiment [4], 90400 in experiment [5] and 56100 in experiment [6]. In experiment [3], the “flow cytometry signal at 0.1µg Ab/Sample” value came to 8820. For the same molecule, the “flow cytometry signal at 1µg Ab/Sample” value in experiment [3] came out at 27300.

B5: AB3-7 conjugated to MC-GGFG-DXD (antibody, V domains shown)
VH: B3 VH
VL: B3 VL
modifications: MC-GGFG-DXD conjugated to the antibody; sites not stated
notes: Antibody-drug conjugate of humanized AB3-7; also called CLDN6 ADC
Regarding B5, in experiment [3], the “flow cytometry signal at 0.1µg Ab/Sample” value stood at 10500 and the “flow cytometry signal at 1µg Ab/Sample” value is 32800.

B6: AB3-7 conjugated to CL2A-SN38 (D4 technology) (antibody, V domains shown)
VH: B3 VH
VL: B3 VL
modifications: CL2A-SN38 conjugated to the antibody (D4); sites not stated
notes: as for B5
Regarding B6, in experiment [3], the “flow cytometry signal at 0.1µg Ab/Sample” value worked out at 9140 and the “flow cytometry signal at 1µg Ab/Sample” value is 34600.

B7: AB3-7 conjugated to MC-GGFG-MMAE (D4 technology) (antibody, V domains shown)
VH: B3 VH
VL: B3 VL
modifications: MC-GGFG-MMAE conjugated to the antibody (D4); sites not stated
notes: as for B5
As for B7, in experiment [3], the “flow cytometry signal at 0.1µg Ab/Sample” value was 8790 and the “flow cytometry signal at 1µg Ab/Sample” value was determined as 31600.

B8: AB3-7 conjugated to MC-VC-PAB-MMAE (D4 technology) (antibody, V domains shown)
VH: B3 VH
VL: B3 VL
modifications: MC-VC-PAB-MMAE conjugated to the antibody, substantially 4 drugs per antibody (D4); sites not stated
notes: Antibody-drug conjugate of humanized AB3-7; also called CLDN6 ADC; ADC-23 (D4 technology)
Take B8: in experiment [3], the “flow cytometry signal at 0.1µg Ab/Sample” value worked out at 9450 and the “flow cytometry signal at 1µg Ab/Sample” value came to 25900.

B9: AB3-7 conjugated to MC-VC-PAB-DXD (antibody, V domains shown)
VH: B3 VH
VL: B3 VL
modifications: MC-VC-PAB-DXD conjugated to the antibody; sites not stated
notes: as for B5
On to B9, for which, in experiment [3], the “flow cytometry signal at 0.1µg Ab/Sample” value was found to be 10800 and the “flow cytometry signal at 1µg Ab/Sample” value was determined as 32600.

B10: AB3-7 conjugated to CL2A-SN38 (conventional) (antibody, V domains shown)
VH: B3 VH
VL: B3 VL
modifications: CL2A-SN38 conjugated to the antibody, heterogeneous (conventional); sites not stated
notes: as for B5
For B10, in experiment [3], the “flow cytometry signal at 0.1µg Ab/Sample” value was 9990 and the “flow cytometry signal at 1µg Ab/Sample” value amounted to 33800.

B11: AB1 (antibody, V domains shown)
VH: QVQLQQSAAELARPGASVKMSCKASGYTFTTYTMHWVKQRPGQGLEWIGFINPSSGYTDYNQKFKDRTTLTADKSSSTVYMQLSSLTSEDSAVYYCANGDYYVAYWGQGTLVTVSA
VL: QIVLTQSPAIMSASLGERVTMTCTASSSVSSTYFHWYQQKPGSSPKLWIYSTSNLASGVPRRFSGSASGTSYSLTISSMEAEDAATYYCHQYHRSPLTFGAGTKLELK
notes: Full-length IgG (ExpiCHO)
With B11, the concentration giving a half-maximal response (EC50) in experiment [1] came to 105 nM; in experiment [2] it was 84 nM; in experiment [7], 2760 nM; in experiment [8], 72 nM.

B12: AB2 (antibody, V domains shown)
VH: EVKLEESGGGLVQPGGSMKLSCVASGFTFSDYWMNWVRQSPEKGLEWVAQIRLKSDNYATHYAESVKGRFTISRDDSKRSVYLQMNNLRAEDTGTYYCNDGPPSGCWGQGTTLIVSS
VL: DIQMTQSPASLSASVGETVTITCRISENIYSYLAWYQQKQGKSPQLLVYNAKILVEGVPSRFSGSGSGTQFSLKINSLQPEDFGNYYCQHHYTVPWTFGGGTKLEIK
notes: Full-length IgG (ExpiCHO)
Turning to B12, the values for the 50% effective concentration (EC50) in experiment [1], in experiment [2] and in experiment [8] were 1360 nM, 912 nM and at least 5000 nM, respectively.

B13: AB3 (antibody, V domains shown)
VH: B12 VH with D31N
VL: B12 VL
notes: Full-length IgG (ExpiCHO)
With B13, the figures for the EC50 in experiment [1], in experiment [2] and in experiment [8] were 1650 nM, 1100 nM and 2490 nM, respectively.

B14: AB4 (antibody, V domains shown)
VH: QVQLQQSGAELARPGASVKMSCKASGYTFTSYTMHWIKQRPGQGQEWIGYINPSSTYTHYIKKFKDKATLTADKSSSTAYMQLRSLTSEDSAVYYCSRGELGGFAYWGQGTLVTVSA
VL: DVVMTQTPLSLPVSLGDQASISCRSSQSLVHSDGNTYLNWYLQKPGQSPKLLIYKVSNRFSGVPDRFSGSGSGTDFTLKIRRVEAEDLGVYFCSQSTHVPYTFGGGTKLEIK
notes: Full-length IgG (ExpiCHO)
For B14, the EC50 in experiment [1] is 48 nM; in experiment [2], 168 nM; in experiment [7] it was 1860 nM; in experiment [8] it was at least 5000 nM.

B15: AB10 (antibody, V domains shown)
VH: QIQLVQSGPALKKPGETVKISCKASGYTFTDYSMHWIKQAPGKGLKWMGWISTETGEPTYADGFKGRFDFSLETSADTAYLSINNLTNEDTATYFCTRGLWSSFAYWGQGTLVTVSA
VL: B14 VL with S25A, D33N, N39H, Y41F, G73R, R81S, S96I
notes: Full-length IgG (ExpiCHO)
Turning to B15, the figures for the EC50 in experiment [1], in experiment [2] and in experiment [7] were 2140 nM, 2470 nM and 246 nM, respectively.

B16: AB14 (antibody, V domains shown)
VH: QVQLQQSGPELVRPGVSVKISCKGSGYTFTDYAMHWVKQSHAKSLEWIGVISTYSGNTNYNQKFQDKATMTVDKSSSTAYMALARLTSDDSAIYYCARRGDYSLYAMDYWGQGTSVTVSS
VL: DIVLTQSPASLAVSLGQRATISCKASQSVDYDGDNYVNWYQQKVGQPPKLLISAASNLESGIPARFSGSGSGTDFTLNIHPVEEEDAATYYCQQSNEDPFTFGSGTKLEIK
notes: Full-length IgG (ExpiCHO)
Consider B16, for which the EC50 in experiment [1] came to 1300 nM; in experiment [2], 1660 nM.

B17: AB18 (antibody, V domains shown)
VH: QVQLKQSGPELEKPGASVKISCKASGYSFTGYNMNWVKQSNGKSLEWIGNIDPYYGGSTYNQKFTGKATLTVDKSSSTAYMQLKSLTSEDSAVYYCARERSGYVFSAMDYWGQGTSVTVSS
VL: NIMMTQSPSSLAVSAGEKVTMSCKSSQSVLFSSNQKNYLAWYQQKPGQSPRLLIYWASTRESGVPDRFTGSGSGTDFTLTISNVQAEDLAVYYCHQYLSSRTFGAGTKLELK
notes: Full-length IgG (ExpiCHO)
Regarding B17, the 50% effective concentration (EC50) in experiment [1] came out at 1350 nM; in experiment [2] it was 2440 nM.

B18: AB5 (antibody, V domains shown)
VH: EVQLQQSGPELVKPGASVKMSCKASGYIFTHYIMHWVKQKPGQGLEWIGCINPYNDGTKYNEKFKGKATLTSDKSSSTAYMELSSLTSEDSAVYYCARYYGYPYYSMDYWGQGTSVTVSS
VL: DVLMTQTPLSLPVSLGDQPSISCRSSQSIVHSNGNTYLDWYLQKPGQSPKLLIYKVSNRFSGVPDRFSGSGSGTDFTLKISRVEAEDLGVYYCFQGSHVPFTFGSGTRLEIK
notes: Full-length IgG (ExpiCHO)
Take B18: the EC50 in experiment [1] was 8 nM; in experiment [2], 5 nM; in experiment [7], 25 nM; in experiment [8] it was 11 nM.
